In paper PMC7952905:

Target: human ACE2 extracellular domain (19-615) (human) (UniProt Q9BYF1)
Assay: SPR

Chain of human ACE2 extracellular domain (19-615) (human) (Q9BYF1 19-615): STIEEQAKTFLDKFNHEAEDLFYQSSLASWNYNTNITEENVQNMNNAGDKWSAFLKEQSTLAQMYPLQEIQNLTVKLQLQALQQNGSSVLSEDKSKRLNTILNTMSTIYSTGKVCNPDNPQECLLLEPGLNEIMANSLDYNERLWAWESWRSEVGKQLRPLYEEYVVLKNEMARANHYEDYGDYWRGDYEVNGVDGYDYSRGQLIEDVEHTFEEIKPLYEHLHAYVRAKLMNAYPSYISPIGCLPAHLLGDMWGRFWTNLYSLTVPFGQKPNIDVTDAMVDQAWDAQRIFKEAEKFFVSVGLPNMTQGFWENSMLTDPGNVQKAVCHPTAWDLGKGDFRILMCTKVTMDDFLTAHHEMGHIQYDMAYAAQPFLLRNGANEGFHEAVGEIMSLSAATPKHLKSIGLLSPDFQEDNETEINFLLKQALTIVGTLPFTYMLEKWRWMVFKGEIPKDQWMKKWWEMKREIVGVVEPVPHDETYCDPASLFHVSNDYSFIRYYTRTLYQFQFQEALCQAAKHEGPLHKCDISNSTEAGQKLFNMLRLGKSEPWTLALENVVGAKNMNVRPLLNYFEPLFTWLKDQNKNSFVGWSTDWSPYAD

Q: With “PCoV_GX RBD (331-524) (domain or fragment)” as the substance, how does the Kd read?
A: 2.7 nM
